Laboratory results: US8815798B2, “Insulin analogues containing additional disulfide bonds” (priority 2010, dated 2014)

What was measured:
Human Insulin Receptor A = molecular target: T1, Human Insulin Receptor A (Homo sapiens, UniProt P06213); experiment: Insulin receptor binding assay (on solubilised insulin receptor), SPA; conditions: SPA competition with [125I]A14Tyr-labelled insulin, solubilized human IR-A
T1 construct: solubilized human IR (holoreceptor); made in house; host or cells: baby hamster kidney (BHK) cells stably transfected with pZem vector containing the human IR-A insert
Method: (2008), Biochemistry, 47, 4743-4751). Competition binding experiments were performed in 96-well plates (polystyrene Optiplate-96, PerkinElmer) on an Eppendorf epMotion 5075 robot using solubilized human IR (holoreceptor) semipurified by wheat germ agglutinin purification from baby hamster kidney (BHK) cells, which were stably transfected with the pZem vector containing the human IR-A or IR-B insert. […] A reagent mix consisting of SPA beads (SPA PVT Antibody-Binding Beads, Anti-Mouse Reagent Cat. No. […] (2008), Biochemistry, 47, 4743-4751). Competition binding experiments were performed in 96-well plates (polystyrene OPTIPLATE-96TM, PerkinElmer) on an Eppendorf EPMOTION® 5075 robot using solubilized human IR (holoreceptor) semipurified by wheat germ agglutinin purification from baby hamster kidney (BHK) cells, which were stably transfected with the pZem vector containing the human IR-A or IR-B insert. […] A reagent mix consisting of SPA beads (SPA PVT Antibody-Binding Beads, Anti-Mouse Reagent Cat. No.

[1] = Thioflavin T (ThT) fibrillation assay; assay type: physicochemical; conditions: mean of four samples with standard deviation, 37° C., 960 rpm
Excerpt: General Procedure for Thioflavin T (ThT) Fibrillation Assay:
This has traditionally been measured by visual inspection of the sample. However, that kind of measurement is very subjective and depending on the observer. Therefore the application of a small molecule indicator probe is much preferred. […] The time course for fibril formation can be described by a sigmoidal curve with the following expression (Nielsen at al. Biochemistry 40, 6036-6046, 2001):
Here, F is the ThT fluorescence at the time t. The constant t0 is the time needed to reach 50% of maximum fluorescence.
Samples were prepared freshly before each assay. […] Thioflavin T was added to the samples from a stock solution in water to a final concentration of 1 μM. Sample aliquots of 200 μl were placed in a 96 well microtiter plate (Packard Optiplate™-96, white polystyrene). Usually four replica of each sample (corresponding to one test condition) were placed in one column of wells. The plate was sealed with Scotch Pad (Qiagen).
The temperature was adjusted to 37° C. […] Fluorescence measurements were done using excitation through a 444 nm filter and measurement of emission through a 485 nm filter.
Each run was initiated by incubating the plate at the assay temperature for 10 min. The plate was measured every 20 minutes for typically 45 hours. Between each measurement, the plate was shaken and heated as described above.
The data points are typically a mean of four samples. Only data obtained in the same experiment (i.e. samples on the same plate) are presented in the same graph ensuring a relative measure of fibrillation between the individual samples of one assay rather then comparison between different assays.
The data set may be fitted to Eq. (1).

[2] = Hydrophobicity by isocratic reverse phase HPLC (k'rel); assay type: physicochemical; conditions: hydrophobicity relative to human insulin (k'rel HI = 1); isocratic RP-HPLC, pH 7.3
Method: The hydrophobicity, k′rel, is calculated as: k′relderiv=((tderiv−t0)/(trel−t0))*k′relref. Using HI as reference: k′relref=k′relHI=1. The void time of the HPLC system, t0, is determined by injecting 5 μl of 0.1 mM NaNO3. Running conditions:
Column: Lichrosorb RP-C18, 5 μm, 4×250 mm
Buffer A: 0.1 M natrium phosphate pH 7.3, 10 vol % CH3CN
After running an initial gradient, the isocratic level for running the analogue and reference (for example HI) is chosen, and the elution times of the analogue and reference under isocratic conditions are used in the above equation to calculate k′relderiv.

Primary rat adipocytes = experiment: Lipogenesis in rat adipocytes; assay type: cell-based; conditions: 3H-glucose conversion into extractable lipids; relative potency compared to human insulin
Excerpt: As a measure of in vitro potency of the insulins of the invention, lipogenesis can be used.
The labelled glucose is converted into extractable lipids in a dose dependent way, resulting in full dose response curves.

T1 sequence (P06213 28-746 isoform P06213-2 limits assumed): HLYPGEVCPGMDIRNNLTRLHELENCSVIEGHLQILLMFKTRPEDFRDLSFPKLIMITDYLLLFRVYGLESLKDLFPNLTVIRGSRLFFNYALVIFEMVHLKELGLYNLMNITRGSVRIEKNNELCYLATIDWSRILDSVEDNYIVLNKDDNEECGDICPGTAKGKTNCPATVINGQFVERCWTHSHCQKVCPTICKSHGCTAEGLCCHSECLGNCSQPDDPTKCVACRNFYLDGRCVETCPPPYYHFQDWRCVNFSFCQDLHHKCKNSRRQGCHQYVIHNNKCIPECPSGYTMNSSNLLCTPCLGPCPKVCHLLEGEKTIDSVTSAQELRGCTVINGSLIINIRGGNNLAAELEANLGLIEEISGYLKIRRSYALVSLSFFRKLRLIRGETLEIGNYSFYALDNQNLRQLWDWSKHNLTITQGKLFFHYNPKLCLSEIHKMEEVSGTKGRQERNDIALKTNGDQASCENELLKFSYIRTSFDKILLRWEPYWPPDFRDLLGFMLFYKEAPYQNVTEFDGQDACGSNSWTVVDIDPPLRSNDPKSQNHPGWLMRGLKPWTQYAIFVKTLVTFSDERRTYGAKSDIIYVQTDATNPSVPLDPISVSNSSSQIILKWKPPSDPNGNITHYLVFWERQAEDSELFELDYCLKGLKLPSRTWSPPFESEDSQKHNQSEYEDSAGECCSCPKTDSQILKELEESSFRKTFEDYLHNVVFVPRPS
T1 sequence (P06213 763-1382 partner limits assumed): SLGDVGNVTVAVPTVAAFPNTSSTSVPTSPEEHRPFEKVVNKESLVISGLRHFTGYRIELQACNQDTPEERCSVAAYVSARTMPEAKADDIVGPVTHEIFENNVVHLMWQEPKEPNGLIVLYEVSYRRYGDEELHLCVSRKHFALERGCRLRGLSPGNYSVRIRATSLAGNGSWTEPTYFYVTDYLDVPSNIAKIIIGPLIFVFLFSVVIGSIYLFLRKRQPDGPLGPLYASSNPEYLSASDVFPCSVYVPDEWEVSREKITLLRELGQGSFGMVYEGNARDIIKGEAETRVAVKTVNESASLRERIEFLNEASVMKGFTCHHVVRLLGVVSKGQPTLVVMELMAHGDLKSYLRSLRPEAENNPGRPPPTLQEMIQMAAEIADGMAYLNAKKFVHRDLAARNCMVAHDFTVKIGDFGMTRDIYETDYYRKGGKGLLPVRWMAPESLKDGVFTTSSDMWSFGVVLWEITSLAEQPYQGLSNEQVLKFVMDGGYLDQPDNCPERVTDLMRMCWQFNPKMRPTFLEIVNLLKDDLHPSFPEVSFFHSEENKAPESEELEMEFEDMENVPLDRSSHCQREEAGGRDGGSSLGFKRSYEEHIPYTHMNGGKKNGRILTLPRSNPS

## A10C, A21G, B2C, B3E, B28E, desB30 human insulin [Example 17]
Human Insulin Receptor A
  Relative Affinity to Human Insulin Receptor A (% HI): 80.0 % HI

## A10C, A21G, B3C, desB27, B28E, desB30 human insulin [Example 23]
Human Insulin Receptor A
  Relative Affinity to Human Insulin Receptor A (% HI): 20.0 % HI

## A10C, A22K, B3C, desB27, desB30 human insulin [Example 28]
[1]; 0 h
  ThT fluorescence, 0 h: 35.8 ± 0.9
[1]; 2 h
  ThT fluorescence, 2 h: 29.4 ± 1
[1]; 20 h
  ThT fluorescence, 20 h: 27.6 ± 0.8
[1]; 45 h
  ThT fluorescence, 45 h: 25 ± 0.7
[2]
  k′-rel (human insulin): 0.0810
Primary rat adipocytes
  Lipogenesis (potency rel to HI): 25.3%

## A21C, B10E, B26C, desB30 human insulin [Example 78]
Human Insulin Receptor A
  Relative Affinity to Human Insulin Receptor A (% HI): 10.0 % HI
